The values that follow come from the Immune Epitope Database (IEDB).

Assay in all cases: IEDB peptide-MHC binding, purified MHC/competitive/radioactivity; ≥ and ≤ were set here for values at or beyond the usual limits of such assays
What all share (settings): source organism: Homo sapiens

The target of test [1] is HLA-A*03:01.
The target in test [2] is HLA-A*11:01.
For test [3], the target named is HLA-A*02:01.
In test [4] the target is HLA-A*30:01.
The target in test [5] is HLA-B*08:01.
Test [6] deals with HLA-A*01:01.
For test [7], the target named is HLA-A*33:01.
Test [8] deals with HLA-A*68:01.
The target of test [9] is HLA-A*31:01.
Test [10] addresses HLA-B*27:05.

Bounds are passed on as bounds.

The IC50 is the concentration needed to halve the response being measured. Turning to AIKTSPKA, the IC50 in test [1], in test [2] and in test [3] was not below 20 µM in each case.
Consider AIKTSPKAN, for which the IC50 in [1], in [2] and in test [3] was not below 20 µM in each case.
For AIKTSPKANK, the IC50 in [1] is 0.584 µM; in test [2], 4.65 µM; in test [3] it was not below 20 µM.
With AIKTSPKANKE, the IC50 in test [1] is 1.59 µM; in test [2], 9.92 µM; in test [3] it was not below 20 µM.
The matching figures for EKVKIPVAIKT: 11.2 µM, 15.1 µM and not below 20 µM.
For the sequence FGLAKLLGA, the IC50 in test [1] is not below 50 µM; in test [4], 8.77 µM; in test [5], 0.0266 µM; in [6], not below 50 µM; in [7], not below 50 µM; in test [8], not below 50 µM. The IC50 in test [2] is not below 50 µM; in test [9] it was 8.45 µM; in [3] it was 0.107 µM; in test [10] it was 3.7 µM.
On to GLAKLLGAEEK, for which the 50% inhibitory concentration (IC50) in test [1] was 0.664 µM; in test [4], not below 50 µM; in test [5], 3.37 µM; in [6], not below 50 µM; in [7], not below 50 µM; in test [8], not below 50 µM. For the same sequence, the IC50 in test [2] was not below 50 µM; in test [9] it was 1.06 µM; in test [3], not below 50 µM; in test [10], 14.7 µM.
In the case of GRAKLLGAEEK, the IC50 in test [1] is 42.9 µM; in test [4] it was not below 50 µM; in test [5], not below 50 µM; in test [6], not below 50 µM; in test [7], not below 50 µM; in test [8], not below 50 µM. Moreover, the half-inhibitory concentration (IC50) is not below 50 µM in test [2], 4.86 µM in test [9], not below 50 µM in [3] and 0.0438 µM in test [10].
As for HVKITDFGL, the IC50 was not below 50 µM in test [1]; 7.63 µM in [4]; 0.475 µM in test [5]; not below 50 µM in test [6]; 6.53 µM in test [7]; not below 50 µM in [8]. Besides, the 50% inhibitory concentration (IC50) was not below 50 µM in test [2], 4.67 µM in test [9], not below 50 µM in test [3] and 41.3 µM in [10].
On to IKTSPKAN, for which the IC50 in test [1], in test [2] and in test [3] was not below 20 µM each time.
For the sequence IKTSPKANK, the IC50 in [1] is 16.5 µM; in test [2], not below 20 µM; in test [3], not below 20 µM.
Consider IKTSPKANKE, for which the IC50 in test [1], in [2] and in test [3] was not below 20 µM each time.
For the sequence IKTSPKANKEI, the IC50 in test [1], in test [2] and in [3] was not below 20 µM each time.
For the sequence IPVAIKTS, the IC50 in test [1], in [2] and in [3] was not below 20 µM throughout.
Take IPVAIKTSPK: the IC50 in test [1] was 1.66 µM; in test [2], 3.35 µM; in test [3], not below 20 µM.
With IPVAIKTSPKA, the IC50 in [1], in test [2] and in test [3] was not below 20 µM in each case.
With KIPVAIKT, the IC50 in test [1], in [2] and in test [3] was not below 20 µM each time.
Take KIPVAIKTS: the half-inhibitory concentration (IC50) in [1], in [2] and in test [3] was not below 20 µM each time.
For KIPVAIKTSP, the IC50 in test [1], in [2] and in [3] was not below 20 µM in each case.
For the sequence KIPVAIKTSPK, the IC50 in [1] is 0.253 µM; in test [2] it was 0.862 µM; in test [3], not below 20 µM.
With KITDFGLAK, the IC50 in [2] amounted to 0.133 µM.
In the case of KTSPKANK, the half-maximal inhibitory concentration (IC50) was 0.679 µM in test [1], 1.69 µM in test [2] and not below 20 µM in test [3].
With KTSPKANKEI, the IC50 in [1], in test [2] and in test [3] was not below 20 µM each time.
Regarding KTSPKANKEIL, the IC50 in test [1], in [2] and in test [3] was not below 20 µM throughout.
With KVKIPVAIKT, the IC50 is 0.397 µM in test [1], 10.2 µM in test [2] and not below 20 µM in [3].
The matching figures for KVKIPVAIKTS: 0.508 µM, 11.4 µM and not below 20 µM.
Regarding LAKLLGAEEK, the IC50 was 43.5 µM in test [1]; 37.3 µM in test [4]; not below 50 µM in [5]; not below 50 µM in test [6]; 20.3 µM in test [7]; 2.01 µM in test [8]. Also, the IC50 in [2] is not below 50 µM; in test [9] it was 29.9 µM; in test [3] it was not below 50 µM; in [10] it was not below 50 µM.
Turning to PVAIKTSP, the IC50 in test [1], in [2] and in [3] was not below 20 µM each time.
For PVAIKTSPK, the IC50 in test [1] is 0.529 µM; in [2], 0.782 µM; in test [3] it was not below 20 µM.
The matching figures for PVAIKTSPKA: 9.32 µM, 11.6 µM and not below 20 µM.
The matching figures for PVAIKTSPKAN: 4.5 µM, 6.43 µM and not below 20 µM.
In the case of RAKLLGAEEK, the IC50 in test [1] is 6.56 µM; in test [4] it was 1.77 µM; in test [5], not below 50 µM; in [6] it was not below 50 µM; in test [7], 35.6 µM; in test [8] it was 28.9 µM. Besides, the IC50 was 21.7 µM in [2], 0.817 µM in test [9], not below 50 µM in [3] and 10.5 µM in test [10].
With VAIKTSPK, the half-maximal inhibitory concentration (IC50) in [1] was 3.68 µM; in test [2] it was 1.98 µM; in test [3] it was not below 20 µM.
In the case of VAIKTSPKA, the IC50 in test [1], in test [2] and in test [3] was not below 20 µM throughout.
As for VAIKTSPKAN, the IC50 in test [1], in [2] and in test [3] was not below 20 µM each time.
With VAIKTSPKANK, the IC50 in [1] was 1.85 µM; in test [2] it was 1.63 µM; in [3], not below 20 µM.
The matching figures for VKIPVAIKT: not below 20 µM, not below 20 µM and not below 20 µM.
As to VKIPVAIKTS, the IC50 in [1], in test [2] and in test [3] was not below 20 µM throughout.
For the sequence VKIPVAIKTSP, the IC50 in test [1], in test [2] and in test [3] was not below 20 µM each time.
